The assay addresses N2β1α1C1, purified recombinant (the MxDnaK1 chimera with the MxDnaK2 NBD) (Myxococcus xanthus DK1622). As to the kind of experiment: SDS-PAGE of the purified protein.

Drawing on publication doi:10.1101/2023.06.19.545549, this text covers stoichiometry N for one substance.

One may read the stoichiometry N as a count of units in the complex or per binding partner. Consider “N2β1α1C1, purified recombinant (the MxDnaK1 chimera with the MxDnaK2 NBD)”, for which the stoichiometry N came to 2.
